One may read the Kd as the equilibrium constant for the complex coming apart. High values mean lower affinity, low ones higher affinity.

The record followed here is article PMC9237115 (2022).

Read-outs that look alike come from different tables or passages of the source.

In experiment [1] the target is Cdk2-phosphorylated Tau (PTau^Cdk2) (human, UniProt P10636-8 1-441, phosphorylated in vitro by Cdk2/CyA2, heterogeneously; LC-MS/MS confirmed phosphorylation of the AT8 (S202 and T205), AT180 (T231 and S235) and PHF1 (S396 and S404) epitopes; full list of sites in …). The experiment is described as follows: Cdk2-phosphorylated Tau.
Sequence of Cdk2-phosphorylated Tau (PTau^Cdk2) (P10636 other isoform, or with tags, fused parts or gaps): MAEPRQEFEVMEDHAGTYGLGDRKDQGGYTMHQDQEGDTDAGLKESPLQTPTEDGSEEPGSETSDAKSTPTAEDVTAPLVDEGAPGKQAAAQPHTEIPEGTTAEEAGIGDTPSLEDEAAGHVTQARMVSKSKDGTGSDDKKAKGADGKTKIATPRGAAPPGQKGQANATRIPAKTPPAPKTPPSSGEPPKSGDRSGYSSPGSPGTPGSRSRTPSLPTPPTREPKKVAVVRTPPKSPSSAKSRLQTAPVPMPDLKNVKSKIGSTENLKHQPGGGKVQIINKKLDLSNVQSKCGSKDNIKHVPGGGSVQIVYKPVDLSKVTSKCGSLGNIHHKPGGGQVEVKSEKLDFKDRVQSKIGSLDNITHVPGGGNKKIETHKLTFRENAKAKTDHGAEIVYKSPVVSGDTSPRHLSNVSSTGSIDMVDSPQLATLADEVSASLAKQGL
The target of experiment [2] is T1, Full-length human Tau (MAPT) (human, UniProt P10636-8 1-441).
T1 sequence (P10636 other isoform, or with tags, fused parts or gaps): as above
Experiment [3] deals with T1, Full-length human Tau (MAPT). The experiment is described as follows: previously reported (ref 2).

B1: Hsp90 (HSP90AB1) (natural protein)
chain: not shown
B1: the dissociation constant Kd in experiment [1] amounted to 27.9 µM; in experiment [2] it was 4.1 µM; in experiment [3] it was 4.8 µM.
